From publication PMC9426524

System: CC(=O)C=O
Assay: purified protein

E. coli YajL (Escherichia coli K-12) gave a Km of 95 ± 18 µM.
